Measurements as given in PMC6107761.

What was measured:
Details in all cases: remark: other sources report otherwise
[1] = biological target: T1, human wild type calcium and integrin binding protein 2 (CIB2) (human), O75838; assay: dynamic light scattering; Zetasizer Nano-S, 37°C; samples immediately after SEC in 20 mM Tris-HCl pH 7.5, 150 mM KCl, 1 mM DTT with 3 mM EGTA or 2 mM EGTA + 3 mM Mg2+ or 3 mM Mg2+ + 2 mM Ca2+
T1 chain: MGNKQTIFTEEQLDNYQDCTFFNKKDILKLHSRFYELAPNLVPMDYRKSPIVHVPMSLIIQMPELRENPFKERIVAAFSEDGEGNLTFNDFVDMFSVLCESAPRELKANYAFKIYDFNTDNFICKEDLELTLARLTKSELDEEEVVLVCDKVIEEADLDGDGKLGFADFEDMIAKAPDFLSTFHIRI

[2] = biological target: T1, human wild type calcium and integrin …; assay: native gel or EMSA; Ferguson plot: non-denaturing continuous gels at 10, 12, 15% acrylamide, BSA as standard; 20 μM CIB2 with EGTA, Mg2+ or Ca2+ + Mg2+, 1 mM DTT, room temperature
[3] = biological target: T1, human wild type calcium and integrin …; assay: SEC; analytical SEC, Superose 12 10/300GL; 20 mM Tris pH 7.5, 150 mM KCl, 1 mM DTT with 3 mM EGTA or 2 mM EGTA + 3 mM Mg2+ or 3 mM Mg2+ + 2 mM Ca2+; WT 100 μM, E64D 70 μM; MW from a calibration plot

Measured: stoichiometry N

B1: human wild type calcium and integrin binding protein 2 (CIB2), O75838-1 1-187 (natural protein)
chain: T1 chain
2: all assays above
